Columns and labels:
[1] = molecular target: T1, recombinant human β2-glycoprotein I, P02749
T1 chain: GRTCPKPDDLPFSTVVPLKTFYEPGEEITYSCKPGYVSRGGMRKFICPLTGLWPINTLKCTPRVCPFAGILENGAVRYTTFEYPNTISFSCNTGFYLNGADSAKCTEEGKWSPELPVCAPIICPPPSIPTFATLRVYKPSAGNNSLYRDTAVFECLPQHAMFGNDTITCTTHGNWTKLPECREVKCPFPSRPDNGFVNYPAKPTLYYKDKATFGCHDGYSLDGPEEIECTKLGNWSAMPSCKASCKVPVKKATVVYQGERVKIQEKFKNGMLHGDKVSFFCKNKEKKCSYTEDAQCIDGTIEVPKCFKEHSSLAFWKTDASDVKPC

[2] = molecular target: T2, β2-glycoprotein I purified from fresh human plasma, P02749
T2 chain: T1 chain

[3] = molecular target: T3, heat-denatured misfolded chicken ovalbumin, P01012
T3 chain: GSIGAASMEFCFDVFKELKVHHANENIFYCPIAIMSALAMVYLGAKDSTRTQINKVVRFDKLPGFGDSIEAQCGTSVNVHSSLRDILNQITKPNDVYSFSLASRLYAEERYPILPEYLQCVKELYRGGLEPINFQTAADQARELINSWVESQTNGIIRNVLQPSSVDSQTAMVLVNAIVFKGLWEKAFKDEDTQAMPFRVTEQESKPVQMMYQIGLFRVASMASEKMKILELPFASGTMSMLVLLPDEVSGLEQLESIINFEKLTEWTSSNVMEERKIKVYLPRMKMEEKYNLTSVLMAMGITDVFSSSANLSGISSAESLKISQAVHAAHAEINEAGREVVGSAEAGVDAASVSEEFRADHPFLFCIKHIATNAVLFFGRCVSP

B1: tissue-type plasminogen activator (tPA, Actilyse, Boehringer-Ingelheim) (protein)
chain: SYQVICRDEKTQMIYQQHQSWLRPVLRSNRVEYCWCNSGRAQCHSVPVKSCSEPRCFNGGTCQQALYFSDFVCQCPEGFAGKCCEIDTRATCYEDQGISYRGTWSTAESGAECTNWNSSALAQKPYSGRRPDAIRLGLGNHNYCRNPDRDSKPWCYVFKAGKYSSEFCSTPACSEGNSDCYFGNGSAYRGTHSLTESGASCLPWNSMILIGKVYTAQNPSAQALGLGKHNYCRNPDGDAKPWCHVLKNRRLTWEYCDVPSCSTCGLRQYSQPQFRIKGGLFADIASHPWQAAIFAKHRRSPGERFLCGGILISSCWILSAAHCFQERFPPHHLTVILGRTYRVVPGEEEQKFEVEKYIVHKEFDDDTYDNDIALLQLKSDSSRCAQESSVVRTVCLPPADLQLPDWTECELSGYGKHEALSPFYSERLKEAHVRLYPSSRCTSQHLLNRTVTDNMLCAGDTRSGGPQANLHDACQGDSGGPLVCLNDGRMTLVGIISWGLGCGQKDVPGVYTKVTNYLDWIRDNMRP
- Plg-activation assay: tPA-mediated conversion of Plg to plasmin, chromogenic substrate S-2251 [1]: Recombinant β2GPI, but not β2GPI purified from fresh plasma stimulate tPA-mediated conversion of Plg to plasmin
- Plg-activation assay: tPA-mediated conversion of Plg to plasmin, chromogenic substrate S-2251 [2]: Recombinant β2GPI, but not β2GPI purified from fresh plasma stimulate tPA-mediated conversion of Plg to plasmin
- tPA protease activity, chromogenic tPA substrate S-2765 [3]: At 80-fold dilution, misfolded OVA stimulated tPA protease activity when compared to PBS/DMSO buffer control
